Source: PMC5533585

Biological target: cytoplasmic dynein-1 heavy chain (human (endogenous in HEK-293)) (UniProt Q14204)
Test: co-IP + SEC; FLAG immunoprecipitate (GF buffer: 50 mM Tris-HCl pH 8.0, 150 mM NaCl, glycerol, 0.2% Triton X-100) run on Superose 6 Increase 10/300 GL; fractions blotted with anti-FLAG, anti-HC, anti-p150; percent = intensity incorporated/(free + incorporated)

UniProt Q14204, sequence (Q14204 whole entry): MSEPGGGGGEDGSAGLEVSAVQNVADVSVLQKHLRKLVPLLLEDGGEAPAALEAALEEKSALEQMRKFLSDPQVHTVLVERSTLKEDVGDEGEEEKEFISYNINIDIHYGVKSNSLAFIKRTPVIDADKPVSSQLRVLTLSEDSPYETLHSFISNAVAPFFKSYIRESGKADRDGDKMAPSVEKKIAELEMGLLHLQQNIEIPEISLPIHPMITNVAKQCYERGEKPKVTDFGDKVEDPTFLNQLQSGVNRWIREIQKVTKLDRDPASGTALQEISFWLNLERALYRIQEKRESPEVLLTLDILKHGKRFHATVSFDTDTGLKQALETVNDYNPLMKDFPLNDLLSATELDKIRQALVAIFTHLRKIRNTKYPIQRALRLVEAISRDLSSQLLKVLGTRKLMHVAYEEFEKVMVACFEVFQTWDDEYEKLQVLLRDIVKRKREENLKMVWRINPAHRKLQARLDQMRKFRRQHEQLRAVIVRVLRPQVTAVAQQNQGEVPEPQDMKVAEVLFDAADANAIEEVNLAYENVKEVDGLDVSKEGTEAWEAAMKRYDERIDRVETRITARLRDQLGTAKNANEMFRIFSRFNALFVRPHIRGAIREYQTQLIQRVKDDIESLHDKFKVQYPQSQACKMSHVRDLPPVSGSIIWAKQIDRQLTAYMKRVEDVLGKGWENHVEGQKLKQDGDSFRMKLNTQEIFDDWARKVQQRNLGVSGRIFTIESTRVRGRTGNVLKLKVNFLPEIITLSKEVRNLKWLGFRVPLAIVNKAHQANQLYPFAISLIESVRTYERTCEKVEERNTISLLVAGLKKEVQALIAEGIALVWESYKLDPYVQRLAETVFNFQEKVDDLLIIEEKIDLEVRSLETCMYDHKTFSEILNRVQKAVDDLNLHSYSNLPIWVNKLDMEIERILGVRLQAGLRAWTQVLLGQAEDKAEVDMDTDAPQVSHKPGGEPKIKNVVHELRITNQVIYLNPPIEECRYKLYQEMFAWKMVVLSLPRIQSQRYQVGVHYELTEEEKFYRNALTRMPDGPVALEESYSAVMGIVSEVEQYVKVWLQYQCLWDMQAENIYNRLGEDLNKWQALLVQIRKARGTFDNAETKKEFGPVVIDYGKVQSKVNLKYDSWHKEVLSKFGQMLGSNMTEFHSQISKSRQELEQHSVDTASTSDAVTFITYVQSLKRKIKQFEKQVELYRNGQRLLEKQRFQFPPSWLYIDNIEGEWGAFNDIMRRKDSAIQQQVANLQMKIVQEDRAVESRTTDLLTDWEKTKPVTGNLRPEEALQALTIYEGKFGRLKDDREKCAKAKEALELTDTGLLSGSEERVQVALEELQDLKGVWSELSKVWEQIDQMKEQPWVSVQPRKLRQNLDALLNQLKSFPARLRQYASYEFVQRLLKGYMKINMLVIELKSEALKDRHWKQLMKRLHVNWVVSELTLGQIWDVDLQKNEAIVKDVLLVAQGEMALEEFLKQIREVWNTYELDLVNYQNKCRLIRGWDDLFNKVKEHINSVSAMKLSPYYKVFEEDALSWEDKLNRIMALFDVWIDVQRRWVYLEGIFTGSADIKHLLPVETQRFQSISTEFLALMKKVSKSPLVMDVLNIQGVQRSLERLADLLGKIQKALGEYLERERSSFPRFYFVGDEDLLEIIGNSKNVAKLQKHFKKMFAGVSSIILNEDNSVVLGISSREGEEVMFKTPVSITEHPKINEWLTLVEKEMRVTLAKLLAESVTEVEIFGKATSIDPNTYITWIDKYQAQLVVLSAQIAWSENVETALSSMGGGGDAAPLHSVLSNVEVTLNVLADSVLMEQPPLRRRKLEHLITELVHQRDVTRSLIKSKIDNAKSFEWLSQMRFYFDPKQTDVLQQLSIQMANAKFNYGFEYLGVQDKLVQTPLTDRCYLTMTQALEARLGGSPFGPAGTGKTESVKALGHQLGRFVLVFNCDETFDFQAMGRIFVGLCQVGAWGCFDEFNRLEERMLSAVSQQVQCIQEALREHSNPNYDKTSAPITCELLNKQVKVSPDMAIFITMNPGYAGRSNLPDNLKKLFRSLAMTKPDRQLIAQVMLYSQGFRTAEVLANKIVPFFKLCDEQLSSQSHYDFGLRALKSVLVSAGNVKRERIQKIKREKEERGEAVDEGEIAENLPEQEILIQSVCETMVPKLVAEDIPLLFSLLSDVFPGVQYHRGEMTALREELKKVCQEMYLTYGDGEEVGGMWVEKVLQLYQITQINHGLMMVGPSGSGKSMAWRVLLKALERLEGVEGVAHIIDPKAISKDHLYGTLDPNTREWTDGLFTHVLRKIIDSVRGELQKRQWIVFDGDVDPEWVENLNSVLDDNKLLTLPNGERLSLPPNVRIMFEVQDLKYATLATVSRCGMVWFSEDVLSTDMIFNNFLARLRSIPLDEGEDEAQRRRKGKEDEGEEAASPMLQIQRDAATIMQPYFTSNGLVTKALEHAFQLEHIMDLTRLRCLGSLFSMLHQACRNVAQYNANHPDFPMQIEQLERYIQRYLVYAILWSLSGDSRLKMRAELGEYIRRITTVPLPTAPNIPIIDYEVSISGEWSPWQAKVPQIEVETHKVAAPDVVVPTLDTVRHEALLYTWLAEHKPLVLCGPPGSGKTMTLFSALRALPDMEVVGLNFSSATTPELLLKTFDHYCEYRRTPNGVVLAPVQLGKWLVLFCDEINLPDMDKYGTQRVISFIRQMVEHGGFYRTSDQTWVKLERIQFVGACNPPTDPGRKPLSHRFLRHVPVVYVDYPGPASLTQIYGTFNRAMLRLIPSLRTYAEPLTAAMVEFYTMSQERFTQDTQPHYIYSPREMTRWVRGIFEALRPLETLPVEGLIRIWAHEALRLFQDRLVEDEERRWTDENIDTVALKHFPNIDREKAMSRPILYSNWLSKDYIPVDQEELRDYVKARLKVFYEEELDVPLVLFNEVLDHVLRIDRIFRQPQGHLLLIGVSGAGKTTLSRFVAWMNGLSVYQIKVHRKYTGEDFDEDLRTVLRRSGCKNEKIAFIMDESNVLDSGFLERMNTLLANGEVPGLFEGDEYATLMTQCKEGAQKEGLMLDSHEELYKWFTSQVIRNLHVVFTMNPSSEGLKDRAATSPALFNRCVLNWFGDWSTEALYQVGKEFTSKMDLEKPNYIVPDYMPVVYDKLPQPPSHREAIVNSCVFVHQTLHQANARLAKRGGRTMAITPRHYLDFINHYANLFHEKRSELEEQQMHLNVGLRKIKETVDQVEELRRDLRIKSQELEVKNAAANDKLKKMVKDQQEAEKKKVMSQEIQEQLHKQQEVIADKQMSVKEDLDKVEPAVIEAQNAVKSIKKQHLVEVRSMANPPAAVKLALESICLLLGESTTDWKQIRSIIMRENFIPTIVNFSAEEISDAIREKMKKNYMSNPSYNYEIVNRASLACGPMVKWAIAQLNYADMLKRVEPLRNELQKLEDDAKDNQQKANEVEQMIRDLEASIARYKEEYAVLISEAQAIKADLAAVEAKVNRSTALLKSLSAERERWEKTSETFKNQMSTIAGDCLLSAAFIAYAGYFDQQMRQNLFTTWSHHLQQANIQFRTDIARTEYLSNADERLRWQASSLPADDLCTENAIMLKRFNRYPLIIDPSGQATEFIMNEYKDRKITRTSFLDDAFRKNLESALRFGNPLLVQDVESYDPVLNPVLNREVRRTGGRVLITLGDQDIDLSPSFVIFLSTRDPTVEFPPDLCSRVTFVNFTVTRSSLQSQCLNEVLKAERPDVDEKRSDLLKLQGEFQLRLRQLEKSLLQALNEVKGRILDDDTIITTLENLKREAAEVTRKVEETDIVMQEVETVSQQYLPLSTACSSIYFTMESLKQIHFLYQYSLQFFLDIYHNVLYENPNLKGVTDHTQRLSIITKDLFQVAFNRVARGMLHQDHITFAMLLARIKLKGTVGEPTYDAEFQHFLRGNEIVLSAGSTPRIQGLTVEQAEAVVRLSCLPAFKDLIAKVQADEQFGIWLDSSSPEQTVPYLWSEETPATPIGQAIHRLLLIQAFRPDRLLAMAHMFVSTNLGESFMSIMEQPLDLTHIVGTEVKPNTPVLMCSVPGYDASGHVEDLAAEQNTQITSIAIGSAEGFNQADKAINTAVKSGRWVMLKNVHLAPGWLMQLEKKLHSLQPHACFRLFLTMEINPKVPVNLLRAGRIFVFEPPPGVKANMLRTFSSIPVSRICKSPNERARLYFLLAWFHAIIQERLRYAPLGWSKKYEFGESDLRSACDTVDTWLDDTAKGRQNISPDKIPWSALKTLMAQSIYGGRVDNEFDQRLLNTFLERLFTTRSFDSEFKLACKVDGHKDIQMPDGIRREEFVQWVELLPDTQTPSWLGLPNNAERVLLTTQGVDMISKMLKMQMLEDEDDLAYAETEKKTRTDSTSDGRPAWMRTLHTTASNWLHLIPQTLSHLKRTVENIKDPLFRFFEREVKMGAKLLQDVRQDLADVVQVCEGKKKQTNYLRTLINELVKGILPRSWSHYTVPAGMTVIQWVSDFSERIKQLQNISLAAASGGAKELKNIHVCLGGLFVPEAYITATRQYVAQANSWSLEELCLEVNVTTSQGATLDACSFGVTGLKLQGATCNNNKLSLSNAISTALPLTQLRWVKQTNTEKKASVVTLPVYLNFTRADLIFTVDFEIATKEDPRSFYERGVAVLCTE

percent of the tagged subunit incorporated into the complex: 51%
Substance: IC2-BioID-3×FLAG (natural protein)
